Measured values from US20100136539A1.

Columns and labels:
[1] = biological target: Ezrin (human) (UniProt P15311); test: Vidas sandwich ELISA, 1/50 Caco2 lysate; negative control as capture, detection 4A7A6C1-biotin
[2] = biological target: Ezrin (human) (UniProt P15311); test: Vidas sandwich ELISA, 1/50 Caco2 lysate; negative control as capture, detection 4G11B5-biotin

Chain of UniProt P15311 (P15311 whole entry): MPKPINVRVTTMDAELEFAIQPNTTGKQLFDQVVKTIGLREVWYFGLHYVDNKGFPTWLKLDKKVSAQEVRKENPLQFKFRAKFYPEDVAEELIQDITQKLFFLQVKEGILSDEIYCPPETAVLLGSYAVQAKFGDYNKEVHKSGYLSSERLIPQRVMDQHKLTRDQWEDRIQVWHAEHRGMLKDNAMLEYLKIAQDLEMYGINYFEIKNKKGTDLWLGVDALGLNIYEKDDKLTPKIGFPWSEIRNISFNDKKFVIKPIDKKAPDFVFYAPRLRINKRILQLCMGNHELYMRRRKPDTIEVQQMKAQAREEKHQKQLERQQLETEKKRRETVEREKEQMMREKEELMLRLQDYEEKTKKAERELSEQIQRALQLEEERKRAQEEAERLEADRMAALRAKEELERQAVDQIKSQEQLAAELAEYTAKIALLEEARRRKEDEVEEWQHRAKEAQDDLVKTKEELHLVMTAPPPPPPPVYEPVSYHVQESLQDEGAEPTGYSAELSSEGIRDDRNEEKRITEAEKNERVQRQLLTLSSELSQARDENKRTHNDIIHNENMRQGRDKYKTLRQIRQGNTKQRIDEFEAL

Substance: Negative control
- Vidas sandwich immunoassay signal [1]: 3 RFV
- Vidas sandwich immunoassay signal [2]: 2.5 RFV
